Measurements reported in US20030148283.

Target: T1, Tma endonuclease V H116A H116A (Thermotoga maritima) (UniProt Q9X2H9)
T1 sequence: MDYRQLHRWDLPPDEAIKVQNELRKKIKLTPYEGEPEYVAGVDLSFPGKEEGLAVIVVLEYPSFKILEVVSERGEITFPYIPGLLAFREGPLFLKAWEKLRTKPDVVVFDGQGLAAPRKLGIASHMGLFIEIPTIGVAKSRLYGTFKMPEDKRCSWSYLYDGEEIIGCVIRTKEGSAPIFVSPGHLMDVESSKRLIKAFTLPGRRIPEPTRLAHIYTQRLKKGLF
Assay: EMSA
Settings: deoxyinosine; MgCl2; bound about half as tightly as wt

nicked I/A product
binding signal: 0.5 fold of wt
